Reference: the supplement of paper PMC12042874
± gives the uncertainty stated by the source.

Assay: amyloid nucleation score (Sup35N fusion, yeast selection) (log enrichment); library NNK1; higher = more nucleation; inactive = no reads after selection
Procedure, shortened: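 Peptides of 20 random codons, each fused to Sup35N, were expressed in psi-negative yeast. Cells were induced with 100 μM copper sulfate for 24 hours and grown 7 days at 30°C on medium lacking adenine and uracil, and plasmid inserts before and after selection were Illumina-sequenced. Nucleation scores are DiMSum log enrichments of output over input reads, centred on the mode score of non-aggregating sequences, and sequences under 100 input reads were excluded.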
IAVDTRVGASYVCGSS showed an amyloid nucleation score of -0.535 ± 0.79.
Substance DGYGLIFW has an amyloid nucleation score of -0.268 ± 0.47.
In the case of CVGVWVRFLTQQCSTHKQYE, the amyloid nucleation score is reported as -0.116 ± 1.2.
IRTNKVFASMPYDNSDTFCS gave an amyloid nucleation score of -1.5 ± 1.9.
For LWDVRPWRWVWEWENVNYGK, the amyloid nucleation score was 0.382 ± 0.54.
RLLFITYSMVSKYNKCLIRG showed an amyloid nucleation score of 0.048 ± 0.74.
In the case of FFNYRVMKRHYSVYLCVGSM, the amyloid nucleation score is reported as 1.18 ± 0.14.
In the case of QFSAIIMSLSLLWSFMCAWE, the amyloid nucleation score is reported as -0.217 ± 0.55.
In the case of QKCIVLVMLLGWVFGMPVIG, the amyloid nucleation score is reported as 0.129 ± 0.65.
Work on AGLMTGATSLQLMKFCSLGG yielded an amyloid nucleation score of -0.729 ± 0.71.
For RNLTDQL, the amyloid nucleation score was 2.99 ± 0.2.
For NKVLCFK, the amyloid nucleation score was “inactive”.
With VYLGRFTPDGVMNYYNYSYV the amyloid nucleation score was -0.763 ± 1.4.
GCNMII gave an amyloid nucleation score of -0.34 ± 0.38.
Work on AFMSRVGLHW yielded an amyloid nucleation score of 0.691 ± 0.25.
Work on EWLLARMTISKRMMW yielded an amyloid nucleation score of 0.587 ± 0.29.
SYCMLNAVPVEMRLTLPGIR gave an amyloid nucleation score of 0.389 ± 0.49.
Substance ISIPYICIMVFFFDAVRVDQ has an amyloid nucleation score of 0.49 ± 0.34.
With FPILVCVLKVLDVVLSDRVL the amyloid nucleation score was “inactive”.
For SVLWRGIFCFWIAWFV, the amyloid nucleation score was -1.39 ± 2.4.
VLDYGIVFNVVLLICIRTTE gave an amyloid nucleation score of 4.87 ± 0.064.
Work on ANLDYWRSSTFTEHMVGLNR yielded an amyloid nucleation score of -0.469 ± 1.2.
Work on RGICWWLNIHWGKAMDMLGP yielded an amyloid nucleation score of 0.428 ± 0.97.
With LVLVWVAIHFDRLRIHRFFI the amyloid nucleation score was “inactive”.
PSHLRYAAH showed an amyloid nucleation score of -0.038 ± 0.54.
SGKGMPNMNIPFHMWYQICY gave an amyloid nucleation score of 0.001 ± 0.33.
Work on PFAGNHTMWKVPTWGKSWKG yielded an amyloid nucleation score of -0.398 ± 0.7.
TFLGGAPVGKIFTLIWLGRG gave an amyloid nucleation score of 0.52 ± 0.93.
YIVVCSIRNLGRINLRGSDT gave an amyloid nucleation score of 0.056 ± 0.8.
FVSYTSP gave an amyloid nucleation score of -0.079 ± 0.33.
With RYSSPSRGTAMFSLLYLYVY the amyloid nucleation score was 0.694 ± 0.97.
With MWSIYMHVAHLGMQTRGCCR the amyloid nucleation score was 1.76 ± 0.22.
Work on GWHTQVMVVTSVSMLGVWT yielded an amyloid nucleation score of 0.487 ± 0.24.
CSNLQLAHKRRISNWSNLWC showed an amyloid nucleation score of -0.029 ± 0.98.
With SDGASPFRWCFHSLRMVSAR the amyloid nucleation score was -0.647 ± 1.1.
For MKVYHSTQEVLWGQGGLLTR, the amyloid nucleation score was -0.116 ± 0.42.
Work on LLCWRYFSCSYFLECVGSTS yielded an amyloid nucleation score of -1.14 ± 0.86.
Work on HGCKYAKGASDLYDIMCFCW yielded an amyloid nucleation score of 0.602 ± 0.38.
In the case of RPLVGTGIYSVVRSLFRLCV, the amyloid nucleation score is reported as -1.16 ± 0.59.
ITYMYGYCMDYF showed an amyloid nucleation score of 0.439 ± 0.38.
Work on YRTVSDTVAY yielded an amyloid nucleation score of 1.42 ± 0.79.
Work on LVMSTRLQTCCWLNVNVGWV yielded an amyloid nucleation score of 6.04 ± 0.069.
NQWCAFWYRESSRVYDCDWL showed an amyloid nucleation score of -0.478 ± 0.53.
Work on DAVSGGVFNCVLFNKVLSLM yielded an amyloid nucleation score of -0.597 ± 0.32.
WCLSG showed an amyloid nucleation score of -0.498 ± 0.48.
Substance RLRSLDHWSWDAVMLMRAQL has an amyloid nucleation score of 0.432 ± 0.34.
For VLCNFWMD, the amyloid nucleation score was 2.9 ± 0.17.
With VHSCFHFSNKGRLVWFPSFH the amyloid nucleation score was “inactive”.
Substance FDVGSFTGIGV has an amyloid nucleation score of 0.115 ± 0.77.
EMNLSLSVCALFRFIT showed an amyloid nucleation score of -0.56 ± 0.43.
With SYSIASVFWSSMSNGLGR the amyloid nucleation score was 0.886 ± 0.2.
For FGPNVSFR, the amyloid nucleation score was -0.638 ± 0.54.
NRRMCFRCIFGFHVCKLNGW showed an amyloid nucleation score of -0.027 ± 0.5.
Work on HVDFQVASSDEDLIHLFLYH yielded an amyloid nucleation score of 0.258 ± 0.54.
TLGFKIVDGIRGNMLVGPGI gave an amyloid nucleation score of -0.081 ± 0.73.
HNFEFTRLAHLDSSTL gave an amyloid nucleation score of 0.248 ± 0.47.
In the case of KFSCGTFSLRHPT, the amyloid nucleation score is reported as 0.725 ± 0.52.
With VALLKWFRIWVSFANCLWGR the amyloid nucleation score was 0.128 ± 0.99.
With RKVGVGKYLSHFECANRIWL the amyloid nucleation score was 0.3 ± 0.33.
RFRYDTVMMNMFLNRVSFGG gave an amyloid nucleation score of 1.38 ± 0.4.
Substance VSLRCWCWGGTHVKPQRGYV has an amyloid nucleation score of 0.377 ± 0.77.
For SSPWRYSDATFCTAGGEGKS, the amyloid nucleation score was -0.465 ± 0.62.
With VVADVAPR the amyloid nucleation score was -0.14 ± 0.34.
Substance SVNAYTSRTGRWMVMNSLVS has an amyloid nucleation score of -0.186 ± 1.9.
With YMGPVV the amyloid nucleation score was -0.313 ± 0.33.
In the case of EFAKNSFAKNTFAADAWLII, the amyloid nucleation score is reported as 0.802 ± 0.78.
YLSHWQFAFIHLNANILL gave an amyloid nucleation score of 0.596 ± 1.2.
Work on GRYVSSWFWFRFMQVQANTN yielded an amyloid nucleation score of 0.248 ± 0.31.
In the case of YASGLILIKSPFV, the amyloid nucleation score is reported as 0.276 ± 0.34.
For TISCSSYDMWWCFTEAKSTM, the amyloid nucleation score was “inactive”.
Substance ARVPSKYRVEVHGRKKAWRG has an amyloid nucleation score of -0.814 ± 0.6.
With NSNARAGVLDLPSCRTVVIE the amyloid nucleation score was 0.68 ± 0.65.
For RSSGVSVGYFRAFS, the amyloid nucleation score was “inactive”.
Work on DCKAYSIRSNV yielded an amyloid nucleation score of 0.705 ± 0.36.
AFNSFIGFHCPSDVWCMKRN gave an amyloid nucleation score of 5.25 ± 0.051.
With ESLFPVCGEMTVTCPLSPTE the amyloid nucleation score was 0.423 ± 1.4.
In the case of WNYPYIFVGGPKKIGGGRRG, the amyloid nucleation score is reported as 0.584 ± 0.58.
With CTSPLVLIHKYYYVMVAVHS the amyloid nucleation score was 0.821 ± 0.55.
For PYSQFANLSIYVMDMMRGIR, the amyloid nucleation score was 5.562 ± 0.048.
TVTGFMF showed an amyloid nucleation score of -0.645 ± 1.7.
LVCVGTGSGMFEHRAIMMLV showed an amyloid nucleation score of -0.174 ± 0.51.
Work on INRHVAMWEDQVLSRLAMWF yielded an amyloid nucleation score of 2.53 ± 0.13.
With TSLCCSYWFSSVIGFSGYCG the amyloid nucleation score was 1.89 ± 0.28.
In the case of IGFPRLTSEDS, the amyloid nucleation score is reported as 0.755 ± 0.4.
In the case of FLSEMWTKVICWVCCCPVYA, the amyloid nucleation score is reported as 4.64 ± 0.062.
